Data reported in paper PMC3944073.

Target: GFP-β-DGNLS fusion protein
Test: AlphaScreen or HTRF; ALPHAScreen; His6-tagged GFP-β-DG-NLS at a fixed amount per well with increasing GST-ezrin, GST-IMPα2/β1 or GST alone (0-60 nM); nickel chelate acceptor beads and streptavidin donor beads; room temperature; apparent dissociation constants from sigmoidal fits

GST-ezrin (mouse) (from UniProt P26040 1-586) (natural protein)
Kd: 2.22 nM
